According to patent publication US20110263485A1 (University of California, published 2011):

Columns and labels:
Experiment in all cases: cell-based or functional assay
[1] = target: HIV-1 ADA (R5) env (gp120 and gp41) (HIV-1 strain ADA)
[2] = target: HIV-1 HXB2 env (X4) (gp120 and gp41) (HIV-1 strain HXB2, UniProt P04578 33-856; P04578 33-856)
[3] = target: HIV-1 JRFL (R5) env (gp120 and gp41) (HIV-1 strain JRFL)
[4] = target: HIV-1 ADA (R5) env (gp120 and gp41) (HIV-1 strain ADA); remark: listed apart in the source

Binder | R5 fusion assay IC50 [1] [nM] | R5 fusion with competition IC50 [1] [nM] | R5 fusion with wash-out on ADA cells IC50 [1] [nM] | R5 fusion with wash-out on P5L cells IC50 [1] [nM] | X4 fusion assay IC50 [2] [nM] | Inhibition of HIV single round pseudovirus in TZM-bl cells, JRFL (R5), IC50 [3] [nM] | Inhibition of HIV single round pseudovirus in TZM-bl cells, JRFL (R5), IC90 [3] [nM] | Inhibition of HIV single round pseudovirus in TZM-bl cells, ADA (R5), IC50 [4] [nM] | Inhibition of HIV single round pseudovirus in TZM-bl cells, ADA (R5), IC90 [4] [nM]
C37-linker-CD4M33C1F23 (designed binder) HTTWMEWDREINNYTSLIHSLIEESQNQQEKNEQELLSSSGGGGSGGGGSSSSCNLHFCQLRCKSLGLLGKCAGSFCACV | 6.83 | 7.78 | 77.8 | 561 | 2.3 | 2.25 | 24.3 | 2.33 | 17.3
Ac-HTTWMEWDREINNYTSLIHSLIEESQNLQEKNEQELL-NH2 [C37(Q652L) (N-acetylated, C-term amidated)] | 28.2 |  |  |  |  |  |  | 114 | 
